Reference: patent US20260263521A1 (AIMED BIO, published 2026)
Residue numbers refer to the chain shown, from its start. Values belong to the binder of their own block, whether it stands above or below them.

Assays:
[1] = target: T1, human CD200R1 expressed on cells (Jurkat-CD200R1, U937-CD200R1, HH cells) (human, UniProt Q8TD46 25-348); test: flow cytometry on Jurkat-CD200R1 and HH cells, 500 nM antibody in IgG1 form
T1 construct: whole, on cells; also called HH (CRL-2105); cell surface-expressed CD200R1
T1 sequence (looked up): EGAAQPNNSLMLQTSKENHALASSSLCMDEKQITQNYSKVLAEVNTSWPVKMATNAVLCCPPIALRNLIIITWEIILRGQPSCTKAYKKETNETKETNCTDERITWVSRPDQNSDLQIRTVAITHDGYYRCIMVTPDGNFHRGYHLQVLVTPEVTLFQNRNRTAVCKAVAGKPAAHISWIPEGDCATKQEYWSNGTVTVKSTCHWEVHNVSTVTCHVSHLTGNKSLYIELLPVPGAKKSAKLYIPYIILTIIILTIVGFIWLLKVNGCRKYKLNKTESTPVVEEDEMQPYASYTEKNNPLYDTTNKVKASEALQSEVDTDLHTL
Protocol: The cells were washed by centrifugation at 130 g for 5 minutes. The cells were seeded onto 96-well round-bottom plates (SPL, #34296) at a density of 1×10⁵ cells/well in Flow cytometry staining buffer (Invitrogen, #00-4222-26) or FACS buffer. […] After incubation for 1 hour at 4° C., the cells were treated with Alexa-647 Goat anti-human IgG (H+L) cross-adsorbed secondary antibody (Invitrogen, #A21445) and incubated at 4° C. for an additional 30 minutes. After washing twice with FACS buffer, flow cytometry analysis was performed using a Novocyte Flow cytometer (Agilent).

[2] = target: T2, mouse CD200R1 protein (R&D systems, 2554-CD) (mouse, UniProt Q9ES57 26-238, limits assumed); test: ELISA, plate-bound mouse CD200R1 (2 ug/mL), IgG 0.0192-300 nM, OD 450 nm; panel 'mouse CD200R1'
T2 construct: Bought; construct not described
T2 sequence (looked up): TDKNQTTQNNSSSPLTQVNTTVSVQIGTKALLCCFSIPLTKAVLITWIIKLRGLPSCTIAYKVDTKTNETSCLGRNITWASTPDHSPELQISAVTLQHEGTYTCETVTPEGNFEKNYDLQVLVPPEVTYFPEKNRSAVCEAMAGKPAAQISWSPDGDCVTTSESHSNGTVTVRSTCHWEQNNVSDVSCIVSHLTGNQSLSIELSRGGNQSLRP
Outline: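 Wells coated with antigen at 2 μg/mL (4 °C, 16 h) and blocked with 3% skim milk before IgG addition. Bound antibody developed with TMB, reaction stopped, absorbance read at 450 nm.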

[3] = target: T3, recombinant human CD200R1 Fc chimera protein, CF (R&D systems, 3414-CD) (human, UniProt Q8TD46 27-266); test: competition ELISA: antibody on coated human CD200R1-Fc, competitor rhCD200-Fc at 1 µg/mL, bound CD200 detected
T3 construct: Bought; also called CD200R1-Fc protein; human CD200R1 Fc protein; Fc part of the bought chimera not given
T3 sequence (looked up): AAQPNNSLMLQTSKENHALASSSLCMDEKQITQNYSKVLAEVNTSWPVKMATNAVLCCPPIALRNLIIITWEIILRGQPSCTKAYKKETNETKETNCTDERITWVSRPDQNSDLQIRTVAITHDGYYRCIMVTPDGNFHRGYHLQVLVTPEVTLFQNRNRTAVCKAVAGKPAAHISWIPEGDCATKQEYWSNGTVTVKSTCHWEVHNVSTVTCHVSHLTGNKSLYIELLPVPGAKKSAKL
Protocol: 96-well plates were coated with human CD200R1 (R&D systems, 3414-CD) recombinant protein at a concentration of 2 μg/mL at 4° C. for 16 hours, and blocked with 3% skim milk for 1 hour. […] The result was washed with PBST and distilled water, and the samples were bound with Pierce™ High Sensitivity Streptavidin-HRP (Thermo Scientific, 21130) at room temperature for 1 hour, and then washed again with PBST and distilled water. TMB substrate solution (Thermo Scientific, 34029, 1-Step™ Ultra TMB-ELISA substrate solution) was added to develop the color. The reaction was stopped with stop solution (Invitrogen, SS04, ELISA Stop Solution).

[4] = target: T4, human CD200RLa (Sino Biological, 11620-H08H) recombinant protein (human, UniProt Q6Q8B3 24-239); test: ELISA, plate-bound human CD200RLa (2 ug/mL), antibody 0.0192-300 nM, O.D 450 nm; panel 'recombinant human CD200RLa'
T4 construct: Bought; construct not described
T4 sequence (looked up): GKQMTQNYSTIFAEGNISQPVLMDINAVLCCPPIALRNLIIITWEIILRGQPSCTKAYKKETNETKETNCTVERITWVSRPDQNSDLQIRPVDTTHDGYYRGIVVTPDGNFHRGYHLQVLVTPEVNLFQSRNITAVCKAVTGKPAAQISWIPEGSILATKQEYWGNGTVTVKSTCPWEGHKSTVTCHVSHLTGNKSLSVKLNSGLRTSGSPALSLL
Outline: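 Plates coated overnight (16 h, 4° C) with human or cynomolgus CD200RLa recombinant protein, blocked with 3% skim milk; bound antibody detected by TMB colour development, reaction stopped before reading.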

[5] = target: T3, recombinant human CD200R1 Fc chimera …; test: ELISA, plate-bound human CD200R1-Fc (2 ug/mL), IgG 0.0192-300 nM, anti-human IgG F(ab')2-HRP, OD 450 nm; panel 'human CD200R1'
Protocol: 96-well plates were coated with human CD200R1 (R&D systems, 3414-CD) and mouse CD200R1 protein (R&D systems, 2554-CD) at a concentration of 2 μg/mL at 4° C. for 16 hours and then were blocked with 3% skim milk.
Color was developed with a TMB substrate solution (Thermo Scientific, 34029, 1-Step™ TMB-ELISA Ultra Substrate Solution). The color reaction was stopped with stop solution (Invitrogen, SS04, ELISA Stop Solution). The absorbance was measured at an optical density of 450 nm.

Hybrid CD200R1 MH = target: T5, Hybrid CD200R1 MH (mouse;human, UniProt Q9ES57;Q8TD46); test: ELISA, plate-bound MH hybrid (1 ug/mL), antibody 0.0192-300 nM, O.D 450 nm; panel 'P001 MH domain-3)'
T5 construct: single domain; mouse D1 over human D2; also called MH hybrid domain; P001 MH domain
T5 sequence (hybrid extracellular part, looked up): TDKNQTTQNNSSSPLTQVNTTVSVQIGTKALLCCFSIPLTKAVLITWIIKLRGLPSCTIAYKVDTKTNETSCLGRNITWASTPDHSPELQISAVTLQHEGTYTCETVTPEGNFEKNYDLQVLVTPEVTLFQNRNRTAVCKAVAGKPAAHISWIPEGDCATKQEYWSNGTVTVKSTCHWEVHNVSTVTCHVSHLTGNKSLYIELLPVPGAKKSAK
Protocol: Recombinant proteins were produced from the extracellular Ig-like V-type domain and Ig-like C2-type domain of human CD200R1, each designed as human-mouse (HM hybrid domain) and mouse-human (MH hybrid domain) recombinant proteins. A 96-well plate was coated at a concentration of 1 μg/mL with each protein at 4° C. for 16 hours and blocked with 3% skim milk. […] After color development with TMB substrate solution (Thermo Scientific, 34029, 1-Step™ Ultra TMB-ELISA Substrate Solution), the color reaction was stopped with a stop solution (Invitrogen, SS04, ELISA Stop Solution), and the absorbance was measured at an O.D. of 450 nm.

binding result [2]: no binding (tested: 300 nM) | binding result [4]: no binding (tested: 300 nM)
B1: P001002 (IgG) (antibody, V domains shown)
VH: EVQLLESGGGLVQPGGSLRLSCAASGFTFSSYAMSWVRQAPGKGLEWVSWISYDSSSKYYADSVKGRFTISRDNSKNTLYLQMNSLRAEDTAVYYCARGVVQPYLWTEFDYWGQGTLVTVSS
VL: QSVLTQPPSASGTPGQRVTISCSGSSSNIGSNYVNWYQQLPGTAPKLLIYSDSHRPSGVPDRFSGSKSGTSASLAISGLRSEDEADYYCGSWDDSLSGYVFGGGTKLTVL
MFI normalized to P001017 (chimeric OX108), % [1]: > 50% | IC50 [3]: 11.5 nM | EC50 (read off the curve) [5]: ~0.8 nM

binding result [2]: no binding (tested: 300 nM) | binding result [4]: no binding (tested: 300 nM)
B2: P001012 (IgG) (antibody, V domains shown)
VH: EVQLLESGGGLVQPGGSLRLSCAASGFTFSGYDMSWVRQAPGKGLEWVSGISSSGGNKYYADSVKGRFTISRDNSKNTLYLQMNSLRAEDTAVYYCARAIRPCISAPCYYDDAMDVWGQGTLVTVSS
VL: B1 VL with S23T, N35S, Q38R, H54Q, D94Y, G98A
binding result (Hybrid CD200R1 MH): no binding (tested: 300 nM)
